Starred links: 1 amine or outer side, 2 acyl side, 3 side chain; linkers in the order of their positions; H or OH if unused. Non-standard residues stand in square brackets, D forms with d. Groups on a side chain read outwards from the residue. No end group written: not given here. *: point of attachment. C20 diacid = O=C(O)CCCCCCCCCCCCCCCCCCC(=O)*; C18 diacid = O=C(O)CCCCCCCCCCCCCCCCC(=O)*; γGlu = O=C(O)[C@H](CCC(=O)[*:2])N[*:1]; αMeL = CC(C)C[C@](C)(N)C(=O)O; Orn = NCCC[C@H](N)C(=O)O; AEEA = NCCOCCOCC(=O)O; Aib = CC(C)(N)C(=O)O
Experiments:
[1] = system: Intestinal organoid from Göttingen minipig jejunum tissue, 2D monolayer; assay: Cell based in vitro permeability (Papp) assay; assay type: in vitro ADME
Procedure: Intestinal organoid from Göttingen minipig jejunum tissue and its 2D monolayer are generated using the protocol previously described ([…]-Thiele, […].; Wells, J. M., Optimized procedures for generating an enhanced, near physiological 2D culture system from porcine intestinal organoids. […] After 7 days of culture, organoids are dissociated into single cells by TrypLE (GIbco), and the single cell suspension is added in 24-well transparent transwell inserts (0.3 cm^2, Falcon, BD). […] Samples from the basal compartment are collected at 20 min in the presence of C10. Peptide concentrations in the apical and basal compartments are measured by LC/MS, and the apparent permeability coefficient (Papp) is calculated as previously described (Twarog, C.; Liu, K.; O'Brien, P. J.; Dawson, […] head-to-head Caco-2 assay comparison of the mechanisms of action of the intestinal permeation enhancers: SNAC and sodium caprate (C10).

[2] = biological target: human GLP1-R (SNAP-GLP-1R expressed in HEK293 cells) (human) (UniProt P43220); assay: cell-based or functional assay
human GLP1-R (SNAP-GLP-1R expressed in HEK293 cells) (human), sequence (P43220 24-463): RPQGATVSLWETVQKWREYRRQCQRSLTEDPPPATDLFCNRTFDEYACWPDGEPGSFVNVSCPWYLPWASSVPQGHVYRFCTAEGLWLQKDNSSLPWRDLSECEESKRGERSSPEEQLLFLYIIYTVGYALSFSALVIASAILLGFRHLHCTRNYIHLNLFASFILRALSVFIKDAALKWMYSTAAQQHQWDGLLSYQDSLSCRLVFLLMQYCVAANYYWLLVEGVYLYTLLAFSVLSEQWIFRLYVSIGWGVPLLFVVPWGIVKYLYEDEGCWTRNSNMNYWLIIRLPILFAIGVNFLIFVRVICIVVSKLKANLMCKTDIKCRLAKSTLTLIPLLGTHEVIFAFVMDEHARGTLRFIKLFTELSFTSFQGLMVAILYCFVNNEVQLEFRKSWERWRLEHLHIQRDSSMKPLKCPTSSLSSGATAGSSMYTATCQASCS

[3] = biological target: T1, human GIP receptor (human) (UniProt P48546); assay: cell-based or functional assay
T1 sequence (looked up): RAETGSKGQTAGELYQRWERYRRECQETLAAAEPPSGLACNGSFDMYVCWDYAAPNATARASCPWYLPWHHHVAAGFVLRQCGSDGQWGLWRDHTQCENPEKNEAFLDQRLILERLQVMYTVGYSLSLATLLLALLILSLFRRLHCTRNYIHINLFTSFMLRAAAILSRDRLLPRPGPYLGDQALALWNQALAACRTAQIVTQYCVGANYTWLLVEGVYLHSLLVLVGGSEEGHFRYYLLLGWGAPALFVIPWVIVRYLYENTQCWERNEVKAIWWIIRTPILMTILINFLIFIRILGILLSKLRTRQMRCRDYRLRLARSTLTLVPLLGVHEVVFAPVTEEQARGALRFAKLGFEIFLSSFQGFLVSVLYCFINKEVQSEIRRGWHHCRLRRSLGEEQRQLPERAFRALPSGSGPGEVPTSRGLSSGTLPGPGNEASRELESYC

hGLP-1R = hGLP-1R (Homo sapiens, UniProt P43220); assay: cell-based or functional assay
hGLP-1R, sequence (P43220 24-463): as the sequence (P43220 24-463) above

[4] = biological target: human glucagon receptor (human) (UniProt P47871); assay: cell-based or functional assay
human glucagon receptor (human), sequence (P47871 26-477): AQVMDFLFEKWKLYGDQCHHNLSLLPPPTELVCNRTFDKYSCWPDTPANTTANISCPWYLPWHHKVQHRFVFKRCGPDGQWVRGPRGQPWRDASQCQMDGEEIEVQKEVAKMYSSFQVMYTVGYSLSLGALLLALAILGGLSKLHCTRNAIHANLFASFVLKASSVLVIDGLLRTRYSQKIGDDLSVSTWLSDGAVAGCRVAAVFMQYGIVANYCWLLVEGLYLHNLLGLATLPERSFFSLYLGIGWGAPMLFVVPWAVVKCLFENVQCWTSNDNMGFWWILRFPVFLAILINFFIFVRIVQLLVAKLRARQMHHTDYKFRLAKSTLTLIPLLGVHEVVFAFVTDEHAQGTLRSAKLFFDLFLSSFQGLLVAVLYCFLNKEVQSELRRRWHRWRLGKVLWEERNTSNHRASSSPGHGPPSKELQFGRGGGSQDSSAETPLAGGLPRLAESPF

Row | Molecule | Relative Papp (Compared to internal standard) [1] | GLP1R Internalization EC50 [2] | Internalization % TOP [2] | Relative cAMP EC50 [3] | cAMP Rel EC50 (in the presence of 1% HSA) [3] | Relative cAMP EC50 (hGLP-1R) | cAMP Rel EC50 (in the presence of 1% HSA) (hGLP-1R) | Relative cAMP EC50 [4] | cAMP Rel EC50 (in the presence of 1% HSA) [4]
1 | H-Y[Aib]QGTFTSDFS[Orn][αMeL]LDKK([AEEA-γGlu-C18 diacid])AQ[Aib]AFIEYLLE[dA]GPSSGAPPPSGS [Example 212] | 0.22 | – | – | – | – | – | – | – | –
2 | YXQGTFTSDFSKXLDKKAQXAFIEYLLAGGPSSGAPPPSGE (synthetic construct; SITE 2: note = 2-Aminoisobutyric Acid; SITE 13: note = alpha-methyl-leucine; SITE 17: note = Lysine is chemically modified through conjugation of the epsilon-amino group of the Lysine side chain with (2-[2-(2-Amino-ethoxy)-ethoxy]-acetyl)-(gamma-Glu)-CO-(CH2) 18-CO2H; SITE 20: n) [Example 11] | – | 75.1 nM | 73.8% | 0.233 nM | 40.8 nM | 2.07 nM | 337 nM | 12.5 nM | 1700 nM
3 | YXQGTFTSDFSKXLDKKAQXAFIEYLLAGGPSSGAPPPSSG (synthetic construct; SITE 2: note = 2-Aminoisobutyric Acid; SITE 13: note = alpha-methyl-leucine; SITE 17: note = Lysine is chemically modified through conjugation of the epsilon-amino group of the Lysine side chain with (2-[2-(2-Amino-ethoxy)-ethoxy]-acetyl)-(gamma-Glu)-CO-(CH2) 18-CO2H; SITE 20: n) [Example 13] | – | 53.3 nM | 74.7% | 0.196 nM | 29.2 nM | 1.78 nM | 282 nM | 7.19 nM | 1670 nM
4 | YXQGTFTSDFSKXLDKKAQXAFIEWLLAGGPSSGEPPPSGE (synthetic construct; SITE 2: note = 2-Aminoisobutyric Acid; SITE 13: note = alpha-methyl-leucine; SITE 17: note = Lysine is chemically modified through conjugation of the epsilon-amino group of the Lysine side chain with (2-[2-(2-Amino-ethoxy)-ethoxy]-acetyl)-(gamma-Glu)-CO-(CH2) 18-CO2H; SITE 20: n) [Example 21] | – | 87.6 nM | 72.5% | 0.218 nM | 29.1 nM | 2.7 nM | 324 nM | 12.4 nM | 1510 nM
5 | YXQGTFTSDFSKXLDKKAQXAFIEYLLAGGPSSGAPPPGGS (synthetic construct; SITE 2: note = 2-Aminoisobutyric Acid; SITE 13: note = alpha-methyl-leucine; SITE 17: note = Lysine is chemically modified through conjugation of the epsilon-amino group of the Lysine side chain with (2-[2-(2-Amino-ethoxy)-ethoxy]-acetyl)-(gamma-Glu)-CO-(CH2) 18-CO2H; SITE 20: n) [Example 16] | – | 37.8 nM | 74.6% | 0.217 nM | 35.9 nM | 1.54 nM | 281 nM | 8.84 nM | 1660 nM
6 | YXQGTFTSDXSKXLDKKAQXAFIEYLLAGGPSSGEPPPSGE (synthetic construct; SITE 2: note = 2-Aminoisobutyric Acid; SITE 10: note = 3-(4-Pyridyl)-L-alanine; SITE 13: note = alpha-methyl-leucine; SITE 17: note = Lysine is chemically modified through conjugation of the epsilon-amino group of the Lysine side chain with (2-[2-(2-Amino-ethoxy)-ethoxy]-acetyl)) [Example 28] | – | 81.8 nM | 76.2% | 0.255 nM | 63.8 nM | 3.68 nM | 686 nM | 12.6 nM | 1550 nM
7 | YXQGTFTSDFSKXLDKKAQXAFIEYLLAGGPSSGEPPPSEG (Aib, αMeL; acyl on Lys; C-terminal amide; synthetic construct; SITE 2: note = 2-Aminoisobutyric Acid; SITE 13: note = alpha-methyl-leucine; SITE 17: note = Lysine is chemically modified through conjugation of the epsilon-amino group of the Lysine side chain with (2-[2-(2-Amino-ethoxy)-ethoxy]-acetyl)-(gamma-Glu)-CO-(CH2) 16-CO2H; SITE 20: n) [Example 22] | – | 41.9 nM | 64.7% | 0.246 nM | 81 nM | 2.94 nM | 592 nM | 5.42 nM | 532 nM
8 | YXQGTFTSDFSKXLDKKAQXAFIEYLLAGGPSSGAPPPGGE (synthetic construct; SITE 2: note = 2-Aminoisobutyric Acid; SITE 13: note = alpha-methyl-leucine; SITE 17: note = Lysine is chemically modified through conjugation of the epsilon-amino group of the Lysine side chain with (2-[2-(2-Amino-ethoxy)-ethoxy]-acetyl)-(gamma-Glu)-CO-(CH2) 18-CO2H; SITE 20: n) [Example 15] | – | 79 nM | 74.9% | 0.201 nM | 36.3 nM | 1.77 nM | 276 nM | 11.1 nM | 1980 nM
9 | YXQGTFTSDFSKXLDKKAQXAFIEYLLEGGPSSGAPPPGEG (synthetic construct; SITE 2: note = 2-Aminoisobutyric Acid; SITE 13: note = alpha-methyl-leucine; SITE 17: note = Lysine is chemically modified through conjugation of the epsilon-amino group of the Lysine side chain with (2-[2-(2-Amino-ethoxy)-ethoxy]-acetyl)2-(gamma-Glu)-CO-(CH2 )18-CO2H; SITE 20:) [Example 17] | – | 66.2 nM | 72.2% | 0.317 nM | 91.7 nM | 2.96 nM | 543 nM | 8.33 nM | 2040 nM
10 | YXQGTFTSDFSKXLDKKAQXAFIEYLLAGGPSSGAPPPSGG (synthetic construct; SITE 2: note = 2-Aminoisobutyric Acid; SITE 13: note = alpha-methyl-leucine; SITE 17: note = Lysine is chemically modified through conjugation of the epsilon-amino group of the Lysine side chain with (2-[2-(2-Amino-ethoxy)-ethoxy]-acetyl)-(gamma-Glu)-CO-(CH2) 18-CO2H; SITE 20: n) [Example 12] | – | 48.5 nM | 75.3% | 0.17 nM | 30.2 nM | 1.46 nM | 216 nM | 12.2 nM | 1490 nM
11 | YXQGTFTSDFSKXLDKKAQXAFIEYLLAGAPSSGAPPPSEG (synthetic construct; SITE 2: note = 2-Aminoisobutyric Acid; SITE 13: note = alpha-methyl-leucine; SITE 17: note = Lysine is chemically modified through conjugation of the epsilon-amino group of the Lysine side chain with (2-[2-(2-Amino-ethoxy)-ethoxy]-acetyl)-(gamma-Glu)-CO-(CH2) 18-CO2H; SITE 20: n) [Example 24] | – | 79.9 nM | 71.9% | 0.308 nM | 102 nM | 3.09 nM | 447 nM | 9.66 nM | 1390 nM
12 | YXQGTFTSDFSKXLDKKAQXQFIEYLLAGGPSSGEPPPSEG (synthetic construct; SITE 2: note = 2-Aminoisobutyric Acid; SITE 13: note = alpha-methyl-leucine; SITE 17: note = Lysine is chemically modified through conjugation of the epsilon-amino group of the Lysine side chain with (2-[2-(2-Amino-ethoxy)-ethoxy]-acetyl)-(gamma-Glu)-CO-(CH2) 16-CO2H; SITE 20: n) [Example 26] | – | 96.1 nM | 75.6% | 0.2 nM | 35.4 nM | 3.44 nM | 623 nM | 4.82 nM | 980 nM
13 | YXQGTFTSDFSKXLDKKAQXAFIEYLLAGGPSSGEPPPSGE (synthetic construct; SITE 2: note = 2-Aminoisobutyric Acid; SITE 13: note = alpha-methyl-leucine; SITE 17: note = Lysine is chemically modified through conjugation of the epsilon-amino group of the Lysine side chain with (2-[2-(2-Amino-ethoxy)-ethoxy]-acetyl)-(gamma-Glu)-CO-(CH2) 16-CO2H; SITE 20: n) [Example 23] | – | 51.5 nM | 67.2% | 0.178 nM | 25.5 nM | 2.98 nM | 308 nM | 5.13 nM | 573 nM
14 | YXQGTFTSDFSKXLDKKAQXAFIEYLLEGGPSSGAPPPGGS (synthetic construct; SITE 2: note = 2-Aminoisobutyric Acid; SITE 13: note = alpha-methyl-leucine; SITE 17: note = Lysine is chemically modified through conjugation of the epsilon-amino group of the Lysine side chain with (2-[2-(2-Amino-ethoxy)-ethoxy]-acetyl)-(gamma-Glu)-CO-(CH2) 18-CO2H; SITE 20: n) [Example 18] | – | 91.8 nM | 74.1% | 0.337 nM | 59.6 nM | 2.31 nM | 561 nM | 2.7 nM | 1210 nM
15 | Y[Aib]QGTFTSDFSK[αMeL]LDKK([AEEA-γGlu-C20 diacid])AQQAFIEYLLA[Aib]GPSSGEPPPSEG-NH2 [Example 19] | – | 52.4 nM | 72.6% | 0.228 nM | 66.2 nM | 3.96 nM | 1310 nM | 2.35 nM | 1010 nM
